Data set [1] concerns tetR:KRAB (tetR:K) (Escherichia coli). Briefly: cell_activity. The settings on record: no doxycycline, stable expression, AAVS1/TetO7 K562.
In data set [2] the test system is tetR:DNMT3A (tetR:D3A) (Escherichia coli). The data set can be described thus: cell_activity. The following applies: no doxycycline, stable expression, slower kinetics.

TetO7 (seven tandem TetO repeats): the activity (% eGFP-negative cells) in data set [1] and in data set [2] was 100 throughout.

(Values after patent publication US20190032049.)
